Where a chain is given by its changes, count along the chain named. Names may count otherwise. One block for each binder: values may come before it.
Experiments:
[1] = target: T1, Scrambled 3pE-28 (human); experiment: SPR; KD limit divided by the KD for human 3pE Aβ
T1 construct: also called scrambled Aβ 3pE-28; Aβ 3pE-28 peptide with amino acids 3-9 scrambled
T1 peptide: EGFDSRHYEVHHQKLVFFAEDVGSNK

[2] = target: human Aβ 1-28 peptide (human); experiment: SPR; KD limit divided by the KD for human 3pE Aβ
[3] = target: T2, mouse Aβ 3pE-28 peptide (mouse, pyroglutamate (pE) at the N-terminus, residue 3 of Aβ); experiment: SPR; KD for this peptide divided by the KD for human 3pE Aβ
T2 construct: also called rodent Aβ3pE-28
T2 peptide: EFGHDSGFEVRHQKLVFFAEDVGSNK

[4] = target: T2, mouse Aβ 3pE-28 peptide; experiment: SPR, antibody captured, peptide injected, 1:1 fit
[5] = target: T1, Scrambled 3pE-28; experiment: SPR; no binding up to the maximum 1.2 µM tested
[6] = target: human Aβ 1-28 peptide (human); experiment: SPR; no binding up to the maximum 1.2 µM tested
[7] = target: T3, human Aβ 3pE-28 peptide (human, pyroglutamate (pE) at the N-terminus, residue 3 of Aβ); experiment: SPR, antibody captured on anti-human or anti-mouse Ig chip, peptide injected, 1:1 fit; N=9
[8] = target: T4, HU-3pE-beta-Amyloid (human); experiment: SPR (per Example 5); antigen peptide not given
T4 construct: also called the peptide

[9] = target: human Aβ 3pE-40 peptide (human, pyroglutamate (pE) at the N-terminus, residue 3 of Aβ); experiment: SPR (Biacore T200), antibody captured by anti-mouse antibody on CM5, peptide injected, 1:1 fit; mean
[10] = target: T3, human Aβ 3pE-28 peptide; experiment: SPR, antibody captured on anti-human or anti-mouse Ig chip, peptide injected, 1:1 fit; N=1
[11] = target: human Aβ1-40 peptide (human); experiment: SPR (Biacore T200), antibody captured, peptide injected
[12] = target: T5, cynomolgus FcRn (cynomolgus, UniProt Q8SPV9 24-297; Q8SPW0 21-119); experiment: FcRn binding affinity; method not described; average of 5-6 replicates
T5 construct: the construct is not described; also called FcRn (cyno)

[13] = target: T6, human FcRn (human, UniProt P55899 24-297; P61769 21-119); experiment: as above
T6 construct: the construct is not described; also called FcRn (human)

[14] = target: T3, human Aβ 3pE-28 peptide; experiment: SPR; same value as in Table 5
[15] = target: T4, HU-3pE-beta-Amyloid; experiment: SPR; HU-3pE-beta-Amyloid 0.6 to 4.5 nM
[16] = target: T5, cynomolgus FcRn; experiment: FcRn binding affinity; method not described
[17] = target: T6, human FcRn; experiment: FcRn binding affinity; method not described

human Aβ 3pE-40 peptide (human, pyroglutamate (pE) at the N-terminus, residue 3 of Aβ), sequence (peptide, as listed by the source): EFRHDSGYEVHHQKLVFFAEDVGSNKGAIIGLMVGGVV
human Aβ 1-28 peptide (human), sequence (peptide, as listed by the source): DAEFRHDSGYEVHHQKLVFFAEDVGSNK
T5 sequence (Q8SPV9 24-297 limits assumed, chain 1 of 2): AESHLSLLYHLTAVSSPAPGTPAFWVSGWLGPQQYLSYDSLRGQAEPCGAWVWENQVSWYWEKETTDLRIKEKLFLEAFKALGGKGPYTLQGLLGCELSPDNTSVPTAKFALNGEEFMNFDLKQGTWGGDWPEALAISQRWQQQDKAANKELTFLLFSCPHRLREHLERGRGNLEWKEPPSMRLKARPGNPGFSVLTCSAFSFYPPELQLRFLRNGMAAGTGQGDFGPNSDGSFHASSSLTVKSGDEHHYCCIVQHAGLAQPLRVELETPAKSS
T5 sequence (Q8SPW0 21-119 limits assumed, chain 2 of 2): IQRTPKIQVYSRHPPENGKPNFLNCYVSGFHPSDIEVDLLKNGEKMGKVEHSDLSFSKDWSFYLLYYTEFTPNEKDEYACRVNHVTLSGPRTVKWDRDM
T3 sequence (peptide, as listed by the source): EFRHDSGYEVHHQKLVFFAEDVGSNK
human Aβ1-40 peptide (human), sequence (peptide, as listed by the source): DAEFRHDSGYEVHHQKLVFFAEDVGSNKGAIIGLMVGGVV

Kd [8]: 0.0183 nM
B3: BAMB623 (antibody, human IgG1, kappa, V domains shown)
VH: QVQLVQSGAEVKKPGASVKVSCKASGHVFTSYDMYWVRQAPGQSLEWIGYIDSDNGDTSYNQKFKGKATMTVDTSTSTVYMELSSLRSEDTAVYYCAYYRYAMDYWGQGTLVTVSS
VL: DVVMTQSPLSLPVTLGQPASISCKSSQSLLDSRAKTYLTWLQQRPGQSPRRLIYLVSKLDSGVPDRFSGSGSGTDFTLKISRVEAEDVGVYYCWQGTHFPYTFGGGTKLEIKR
notes: HFA variant of BAMB31, human IgG1

Kd [8]: 0.0383 nM
B5: BAMB630 (antibody, human IgG1, kappa, V domains shown)
VH: B3 VH with R38K, A68V, M70L
VL: B3 VL with Q42L
notes: as for B3

Kd [8]: 0.018 nM
B7: BAMB631 (antibody, human IgG1, kappa, V domains shown)
VH: B3 VH with I48M, K67R, A68V, M70L
VL: B3 VL with Q42L
notes: as for B3

Kd [8]: 0.016 nM
B8: BAMB614 (antibody, human IgG1, kappa, V domains shown)
VH: B3 VH with S44G, K67R, A68V, M70L
VL: B3 VL
notes: as for B3

Kd [8]: 0.0182 nM
B9: BAMB613 (antibody, human IgG1, kappa, V domains shown)
VH: B3 VH with S44G, A68V, M70L
VL: B3 VL
notes: as for B3

Kd [15]: 0.0342 nM
koff [15]: 9.86e-05 s⁻¹
kon [15]: 2.88e+06 M⁻¹ s⁻¹
B11: BAMB700 (antibody, human IgG1, kappa)
heavy: not shown
light: DVVMTQSPLSLPVTLGQPASISCKSSQSLLDSRAKTYLTWLQQRPGQSPRRLIYLVSKLDSGVPDRFSGSGSGTDFTLKISRVEAEDVGVYYCWQGTHFPYTFGQGTKLEIKRTVAAPSVFIFPPSDEQLKSGTASVVCLLNNFYPREAKVQWKVDNALQSGNSQESVTEQDSKDSTYSLSSTLTLSKADYEKHKVYACEVTHQGLSSPVTKSFNRGEC

Kd [15]: 0.0314 nM
koff [15]: 9.47e-05 s⁻¹
kon [15]: 3.01e+06 M⁻¹ s⁻¹
B12: BAMB701 (antibody, human IgG1, kappa)
heavy: QVQLVQSGAEVKKPGASVKVSCKASGHVFTSYDMYWVRQAPGQGLEWIGYIDSDSGDTSYNQKFKGRVTLTVDTSTSTVYMELSSLRSEDTAVYYCAYYRYAMDYWGQGTLVTVSSASTKGPSVFPLAPSSKSTSGGTAALGCLVKDYFPEPVTVSWNSGALTSGVHTFPAVLQSSGLYSLSSVVTVPSSSLGTQTYICNVNHKPSNTKVDKKVEPKSCDKTHTCPPCPAPELLGGPSVFLFPPKPKDTLYITREPEVTCVVVDVSHEDPEVKFNWYVDGVEVHNAKTKPREEQYNSTYRVVSVLTVLHQDWLNGKEYKCKVSNKALPAPIEKTISKAKGQPREPQVYTLPPSREEMTKNQVSLTCLVKGFYPSDIAVEWESNGQPENNYKTTPPVLDSDGSFFLYSKLTVDKSRWQQGNVFSCSVMHEALHNHYTQKSLSLSPGK
light: B11 light with Q105G, L109V

Fold Selectivity [1]: > 46000 fold
Fold Selectivity [2]: > 46000 fold
Fold Selectivity [3]: 3010 fold
fold higher affinity compared with wt IgG1 (BAMB674) [16]: ~3 fold
fold higher affinity compared with wt IgG1 (BAMB674) [17]: ~3 fold
Kd [4]: 77.5 nM
koff [4]: 0.000333 s⁻¹
kon [4]: 4680 M⁻¹ s⁻¹
Kd [5]: > 1200 nM
Kd [6]: > 1200 nM
Kd [7]: 0.0257 nM
koff [7]: 8.24e-05 s⁻¹
kon [7]: 3.24e+06 M⁻¹ s⁻¹
Kd [12]: 86.4 nM
Kd [13]: 111 nM
Kd [14]: 0.0257 nM
Kd [15]: 0.0443 nM
koff [15]: 0.000166 s⁻¹
kon [15]: 3.74e+06 M⁻¹ s⁻¹
B13: BAMB675 (antibody, human IgG1, kappa)
heavy: B12 heavy
light: B11 light with Q105G
notes: Same V regions as BAMB674; human IgG1 with M37Y, S39T, T41E (YTE) in the Fc (numbering on the constant region, GenBank AEV43323); also called BAMB31 HFA mAb, +YTE IgG1; +YTE mAb

More lines, now with the values behind:

B1: BAMB246 (human IgG1 chimera) (antibody)
heavy: not shown
light: DVVMTQTPLTLSVTIGQPASISCKSSQSLLDSNGKTYLTWLLQRPGQSPKRLIYLVSKLDSGVPDRFTGSGAGTDFTLKIIRVEAEDLGVYYCWQGTHFPYTFGGGTKLEIKRTVAAPSVFIFPPSDEQLKSGTASVVCLLNNFYPREAKVQWKVDNALQSGNSQESVTEQDSKDSTYSLSSTLTLSKADYEKHKVYACEVTHQGLSSPVTKSFNRGEC
notes: Mouse variable regions on a human IgG1 constant region; also called human chimeric parent; huIgG1 chimera
Fold Selectivity [1]: > 95000 fold
Fold Selectivity [2]: > 95000 fold
Fold Selectivity [3]: 3140 fold
Kd [4]: 39.6 nM
koff [4]: 0.000404 s⁻¹
kon [4]: 10200 M⁻¹ s⁻¹
Kd [5]: > 1200 nM
Kd [6]: > 1200 nM
Kd [7]: 0.0126 nM
koff [7]: 4.42e-05 s⁻¹
kon [7]: 3.53e+06 M⁻¹ s⁻¹
Kd [8]: 0.0139 nM

B2: BAMB31_2a (mIgG2a) (antibody)
heavy: EIQLQQSGPELVKPGTSVKVSCKASGHVFTSYDMYWVKQSHGKSLEWIGYIDSDNGDTSYNQKFKGKATLTVDKSSSTAYMHLNSLTSEDSAVYYCAYYRYAMDYWGQGTSVTVSSAKTTAPSVYPLAPVCGDTTGSSVTLGCLVKGYFPEPVTLTWNSGSLSSGVHTFPAVLQSDLYTLSSSVTVTSSTWPSQSITCNVAHPASSTKVDKKIEPRGPTIKPCPPCKCPAPNLLGGPSVFIFPPKIKDVLMISLSPIVTCVVVDVSEDDPDVQISWFVNNVEVHTAQTQTHREDYNSTLRVVSALPIQHQDWMSGKEFKCKVNNKDLPAPIERTISKPKGSVRAPQVYVLPPPEEEMTKKQVTLTCMVTDFMPEDIYVEWTNNGKTELNYKNTEPVLDSDGSYFMYSKLRVEKKNWVERNSYSCSVVHEGLHNHHTTKSFSRTPGK
light: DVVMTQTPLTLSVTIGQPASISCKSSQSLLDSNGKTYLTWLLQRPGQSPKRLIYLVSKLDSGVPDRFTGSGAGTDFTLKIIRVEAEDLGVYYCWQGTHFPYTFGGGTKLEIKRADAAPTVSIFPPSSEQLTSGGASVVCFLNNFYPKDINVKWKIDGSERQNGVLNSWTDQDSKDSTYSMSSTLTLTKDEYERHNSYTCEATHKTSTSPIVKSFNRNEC
notes: BAMB31 V regions on murine IgG2a; also called BAMB31 (mIgG2a); mIgG2a parent
Kd [9]: 0.053 nM
koff [9]: 4.94e-05 s⁻¹
kon [9]: 930000 M⁻¹ s⁻¹
Kd [10]: 0.0275 nM
koff [10]: 7.97e-05 s⁻¹
kon [10]: 2.89e+06 M⁻¹ s⁻¹
binding result [11]: no binding (tested: 50 nM)

B4: BAMB611 (antibody, human IgG1, kappa, V domains shown)
VH: B3 VH with S44G, I48M, K67R, A68V
VL: B3 VL with R33N, A34G, L41F
notes: Human framework adapted (HFA) variant of BAMB31, human IgG1
Kd [8]: 1.52 nM

B6: BAMB612 (antibody, human IgG1, kappa, V domains shown)
VH: B3 VH with A40S, S44G, K67R, A68V, M70L
VL: B3 VL
notes: as for B3
Kd [8]: 0.0117 nM

B10: BAMB674 (antibody, human IgG1, kappa)
heavy: not shown
light: B11 light with Q105G
notes: Lead HFA variant, wild type human IgG1, HCDR2 N55S; also called BAMAB674; BAMB31 HFA mAb, wild type IgG1
Fold Selectivity [1]: > 47000 fold
Fold Selectivity [2]: > 47000 fold
Fold Selectivity [3]: 1790 fold
Kd [4]: 45.5 nM
koff [4]: 0.000338 s⁻¹
kon [4]: 7400 M⁻¹ s⁻¹
Kd [5]: > 1200 nM
Kd [6]: > 1200 nM
Kd [7]: 0.0254 nM
koff [7]: 8.32e-05 s⁻¹
kon [7]: 3.27e+06 M⁻¹ s⁻¹
Kd [12]: 268 nM
Kd [13]: 349 nM
Kd [14]: 0.0254 nM
Kd [15]: 0.0401 nM
koff [15]: 0.000136 s⁻¹
kon [15]: 3.39e+06 M⁻¹ s⁻¹
